This passage reports protein production results from a protein production outcome set (Wang et al. 2014).
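Note: failed if final PepcDB status was selected cloned or expressed and not failed if soluble or beyond.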

A short description of the series: label from the status in PepcDB records.
Turning to “MNKEALVNRLNASAKRQKADIVIKNGKIMDVYNQEWIYEDIAITDGVIVGLGEYEGENIIDAEGQMIVPGFIDGHVHIESSMVTPIEFAKAVLPHGVTTVVTDPHEIANVSGEKGIEFMLEQARHTPLNIHFMLPSSVPAASFERSGAILKAADLKPFYEEEEVLGLAEVMDYVSVQQAEKDMVQKLLDARVAGKRIDGHLAGLSTDLINIYRTAFVLNDHEVTSKEEALDRIRRGMYVMMREGSVAKNTLNVLPAVNEKNRTPVFFCTDDKHVDDLLSEGSVNHQVKMAIQAGLNPFLAYQLGSLNAAECYGLDTKGAIAPGFDADLLFVSDLENVTVTMTMVKGQTVAEDSKAVYQDHASTAAPDQALLDSVKLAAPLNKQDFHMPIDSEQQINVIQIIPNQLETRLVQVPAPVAREFEPDTELDLLKIAVVERHKGLKETGLGVVKGFGFKSGAIATTISHDSHNIIAVGTNDEDIAAAVNKLQEIGGGLTIIKNGEELHSVPLPIAGLLSDQSAEQVNQSLLTLHDKLSLIGFTGGFNPFLTLSFLALPVIPDIKMTTTGLFDVKSFQHISLQLEHHHHHH”, the protein production entry is recorded as “not failed”.
Regarding “MAKHVIIGAGSIGTNVARLLAEGGESVRIVTRSGSGPEHPLVDRVAADASDPSRLTELSRGAGVIYHCANPPSYTVWERLLPPLQTAAITAAKANDAVLALTGSLYAYGPQPGGRMNEHTPMAATGHKGRLRRRMWEQALAGGIRTVEVRGSDYIGKDANGIYSLLIKSALQKGKAAWITGHLDMPHTFTFNGDMAQALITLASEERAWGRPWHVPSAPAVTIRELARRYAVAAGRPPIKLIQIPRSVTRTAGLIVPIAREMAEMDYQWYAPFHMDATETTETFGLTATDLDTAVRNEVG”, the protein production entry was “failed”.
Regarding “MNITVNDRECSAQVGDRLLDIARANHSHIGYFCGGNAICQTCYVRVLEGAELLSPMSDAEKAMLSDKLIKEGTRMACQTLIEKPGKITVLSEVEAAKRLTLENPLQLPAYMGKMGWEAAVKFTDTIAFQARREQGEHALEPTQLLHDVAAAISDAIQLVFNAVQAAFGVNRSTDKPEIKADKGCGCDTTLLAKTATCDNGHGRIVSPEVLQLHQERSAVCN”, the protein production result is listed as “failed”.
In the case of “MAVNQDTLYVKGDRNVEVTKREVTLGDLVSMECSNRVILPHLKTMKVLKIPENGEKRYVISILKIIACIHEKYPGLEVQNLGETDLIVTYEMQKTPSK”, the protein production result was “not failed”.
“MKPAKVSLLHRLLQCLKQCVDCNTVNRFTAINIFVNILLISAVISFPYSAAAHGATQSGDQYSSFEELERNEDPASYRITEKNARVPMLIMAIHGGGIEPGTSEIANEVSKNYSLYLFEGLKSSGNTDLHITSTRFDEPAALAITASHQYVMSLHGYYSEDRDIKVGGTDRAKIRILVDELNRSGFAAEMLGTDDKYAGTHPNNIANKSLSGLSIQLEMSTGFRKSLFDRFTLKDRAATQNETFYRFTKLLTDFIHENYEEDGGDFPSAKIKHPLQV”: the protein production entry is “failed”.
Next, “MRGLSLSPVVLPEVRREAGVELRKARLEDVDAIYWLIRYWAEKGLMLVRSHSHLYENIRDFWVLEDEDGQIVGTVALHVLWRDLAEIRGLAVHPTRQGQGLGRWLVLGAEREARDLGLPRVFAWTLQVNFFRALGYRVTSREALPPKVWSECNACPFYENCREIAVVKEFSPGASGG”: “failed”; “MAQISQLSAVILAGGLARRMNGNEKGLCLLHQQPLISHILARLTPQVCTIYFNINRSFATYQQLYPQLTYYSDKIADFQGPLSGILSGFEKIDSEYLLFVPCDTPFLPKNLVTKLTNSLIMNEATIAYAHDGEQAHPTIALIHRSITPALASYLASGERRLYHFFKTQKSIAVDFSDQKNAFQNFNSLADLEQFSTISATRVDQSRLLGITGYSGTGKTTLLEKLIPILTANGIKVGLIKHSHHNVDIDKNGKDSHRLRTAGANPTIIVCQQRWALMTETPQQAVDFQQLITKFDPESVDLILVEGFKDEQFAKIQLHRQVIKKPLPELDEWTIATATDYPIARPNLLDINQIDKIADFIQQWLNN”: “failed”.
As for “MLESFGEHRWLLWAVASAVLACTEMLSGEFTLLMLAAGAGAGAITAAIVPGMWLLQVIVAAVVAALLLTVLRPTLLRRVREAPGYRSALDKLVGSDGVATSDITDGHGQVKVDGEEWSARALEPGSTIAAGEKIEVYEIDGATLVVYPVFRSLSS”, the protein production result is recorded as “failed”.
The entry for “MVNQNLTATEIGFTHEDFAALLDKYDYHFSPGDVVPGTVFSIEPRGALIDIGAKTAAYIPIQEMSINRVDAPEEVLQSNETREFFILTDENEDGQLTLSIRRIEYMRAWERVRQLQAEDATVRSGVFATNRGGALVRIEGLRGFIPGSHISTRKPKEELVGEELPLKFLEVDEERNRLVLSHRRALVERKMNRLEVGEVVIGTVRGIKPYGAFIDIGGVSGLLHISEISHEHIDTPHSVFNVNDEVKVMIIDLDAERGRISLSTKQLEPEPGDMIKNRDLVYDKAEEMAAKYREQLLAKQQGITLPAEGAEDLIEEEIPPATEDAVAEEEIVAVEEIPAAIEE” is “failed”.
The entry for “LRASEIMNRTLDLQIIMDDLLNLLLKEFKLDLAVIRLVDEKGVLRVRSYSGKGIAGIAGKDWEPEIETYIGEAFLSNRLQFVNDTQYMTKPLTRELMQKEGIKSFAHIPISRKGEPPFGILSVFSRTIVGLFNEPFLNLLESLAGQLAQAVKIVTEMEAKEREREEKERILLENA” is “not failed”.
Next, “MSLERFAPIKVERCKDIQKELKKAAAENKLQTEDLWFEILKTSIFIKNSAKDDFSEAFGGELQQLEEEEYYEKKELTLYQTHDIKIKSNAYKRFFEVKVDENLSAIEIILDECFIVLDTEEHYQEMFAYIKECLAFQGVVFRHFSQMYENLKTELRKYQKEAQNKRFILYTSSTFIPNIEEQSHFLLEEEYLPTHTIFLSDQEESFVKENYYIAKENQKVACVNCPKQGRDGRNLKGLYIELPKVAHSPTPIGHDKNAFEEREENNALVYYSKALQGVKMEKGRLVSKQNFIFKNGIKSIETPNLLGGLESGLALEIQARDELSDAIDSNLILEASVINIKGNVGKNVILVAKEITIEGQIHPESYVYANKARITNHKGVCYAKELECKYLERAKVYANSVKVEASAGSVVYAKEIALEKLKSDNKLYFSKQCWIDEVDGNGNRFIFYAFGGRENQEELKAAKQKLNALGLKSKKIIAQHQSLNHLVKNHQAIMEKLKNATEEIKRSLMQQESVKDAYSEFMFALKRLKILKAQMLELQKINNECYAKLISIENSFQHASITTKNPFKQENIVIYHRNYPKVSNSTAMLSHNESVNVIYEDHKIKKVPKSAIKG”: “failed”.
Regarding “QSNVVIMQDPGGGYGDALRKVMYDPFEKETGIKVVTVQEARSGPRIKAQAEAGKAQWDLTFIFDQETKLLGDCCLADIDYSKLSESAHKTLAAMPDNLKRKKGVALQVIGVGLVYNKDKFKGDKAPQTWADFWDVKKFPGRRCMPAWPRFTFEAALMADGVTKDKLYPIDMDRALKKLKEIKPHVVKWWTTAAQPPQLILDGEADMCLAYTGSMSKLALEGAPIDLTFNQGFVYYDFFSIPKGAPNYDNALKLLSWRLDPKRAAQLTSTFPVALPSKVVFDAATDKNIARYWANNPENVAKAIEWSPDFWGAPSPAGNSTNEEYGQEKLNAMLAQ”, the protein production result is listed as “not failed”.
With “MTNNPLGRIIPQQPPIEPQSDAHVLKSRLEWGEPAFTILDVRDRSTYNDGHIMGAMAMPIEDLVDRASSSLEKSRDIYVYGAGDEQTSQAVNLLRSAGFEHVSELKGGLAAWKAIGGPTEGIIESRTPAGADDYNVVSRMQNHLENQKKEV”, the protein production result is reported as “failed”.
Next, “MDYREVDSTSEFVCRLEHGGDWRAQIEAFADEQGIDAGFFYGLGAVQDAELMFYDQDRTEYDSLTFDEPLEVAACMGNISHFDGERFAHTHAVLSRPDGEAVAGHLNAGTVWAGELYVRGFDTELQREHDEPTDLDLWNILEHHHHHH”: “failed”; “MQDGFLTVSIIDATNNRPIQNAVVNIYSMSNGSQSSSTLYQNLRSNESGQVTGLVLPAPDVDYSLQPSDVRPYSQYIVEAIADGYETVVIEGTQLLATIEARQGVPMSPRTRSKRSFSRQSELIFDIGEHTLYGTYPPKIPESNLKPLPPPTGFVVLDNPVVPEFIVVHDGLPEDSSAPNYWIPFKEYIKNIASSEIYSTWPEQTIYANVIAIISFTLNRVFTEWYRNKGYNFTITSTTAYDHKFINNRNLFEPINVVVDAIFNTFIKRPPTSRQPLLAQYCDGQKSQCPDQMTQWGSKDLGDQGYDYESILRYFYGDEIVFERAPIVSGVPVSFPGTTLQVGSSGQYVRTIQNQLNAISNSYPAVPKVIEDGIYGTDTENAVKIFQGIFGLPQSGVVDFKTWYEISRVYVATTRIASLNPLILEHHHHHH”: “not failed”.
As to “MATRQPLDATACSLMVGLCAIWGLQQVALKATASDIAPVLQIALRSGGAALLVGLLMCWRGERLGLGDGHWRPGLLVGGLFALEFLLVGEGLRYTTASHMAIFLYTAPIFAALGLHWLMPAERLKPAQWLGIGVAFGGIVVAFSGPAAAGHGGGSHVLLGDFLGVLGGVAWGATTVVVRCSRLASSPTTRTLQYQLLGAFVWLGLAALLTDQTSIHFTPLVVASLGFQVLVVSFASFLIWFTLLRRYPASRLGVLSFMTPLFGIGFGVWLLHEPLEPNFIFGALLVLAGIVMVSGYEWLRQRFKRNRESPVAPRSS”, the protein production entry is reported as “failed”.
Next, “MNESSTHDSVADDPTEVSTDTVLDIALSLFSELGFSDAKLEAIAKKSGMSKRMIHYHFGDKRGLYICCLEEAVRRLRPTAEEMYLASAVPVEGVRTIVEAVFHRYVQHPEAVRMLQMENLHHYGKVAEASPLSDQSAITLQLDRLLMLGQDAGAFRPGISAQDVFTLIASIAVFRINSRSTTLNLYGIDMMNGDNTDGMRRMAVDTVLAFLTSNLKSADEDSYLSRPLLSTVTEHVDEEGSYEVAADPFS”: “not failed”; “MKDSMFLYEFDLFRYSKDLTALSFLLLIGSSLTVHWVSLSMSSSRDLLHYLVLPLILVVILHEGLHALTAKLSGAKTSLGVLTKYGIILAVYVGINTPLPVKKIRYITIAPIIISIVAFFFSWVTYSPFWAILYIFNTTGIVGDLIVFLVLSKMPSDAIVVDEGTIMKSNAEFPEPYPSWFSKLIIGLAVLVFLYILTNIRIEFEVVGTLPNQTMPVNSHFE”: “failed”.
The entry for “MRKISIVIPVYNTEKYLKLSVDSVLSQSYQDWELILVDDGSKDGSGAICDKYASEDSRIKVYHTVNQGVTAARGYGVEQSTGEWICFLDADDTLADDALQVMLGKSADCDIVIGNKRIVSGNDVTEEWMNQDDRQLQAVEFLDGLIRNKISQYITGRIFRRILFDNGTICIPRELIMAEDFIMNVQLGNKAKKIAVIRDMVYGYHVYGESVSHTFRTNLEYESRFCDCLFSALKTGGYYEEVKEAFTFQKVRALKSAFMAQQGRVNLRHPFLQEVRKEAKSIGLSRGWKLFLYLLPLKYIGYIFFRSLNKLEHHHHHH” is “not failed”; for “MRIYLIGFMCSGKSTVGSLLSRSLNIPFYDVDEEVQKREGLSIPQIFEKKGEAYFRKLEFEVLKDLSEKENVVISTGGGLGANEEALNFMKSRGTTVFIDIPFEVFLERCKDSKERPLLKRPLDEIKNLFEERRKIYSKADIKVKGEKPPEEVVKEILLSLEGNALGG” it is “not failed”; for “MGVNMRAETESRIFSVDEYVRPSNGEPIRSVVLETNDSVVVVWHAHPGQEIASHVHPHGQDTWTVISGEAEYHQGNGIVTHLKAGDIAIAKPGQVHGAMNSGPEPFIFVSVVAPGNAGFALAEK” it is “not failed”.
Next, “MESPPMFNSVEDECRYWKERSKQYHKEWTDVKQEYDEFVEQSREMEIEMDATLDQKQSIIKDLTAKLTMFERENESLKLKLESHGIDMSNMEKQLETVKKDRDTMKVYLRQLEQKNDDLERAHRILNESIENFEKMLDQAYEKNALLELEVDEKGLLQEKLQRLMDETRDLKQELNVKSRFTPVVNGTSVPTANDTNTVNSSMNSSASLPNGIVANGELVKHDNAVATRATSVSVNALNGSLVNRNEYNQQHSLKSDGDETEDVPREWSANAAATPLLPAIHTSGAGRTALLLAGCRVVWILQFSVIHKPQIRNPIT”: “failed”.
